Source: US9694061B2, “Fully human antibodies to high molecular weight-melanoma associated antigen and uses thereof” (University of Pittsburgh—Of the Commonwealth System of …, priority 2008, dated 2017)

Legend:
[1] = target: T1, HMW-MAA (Homo sapiens, UniProt Q6UVK1); assay: Indirect immunoprecipitation and SDS-PAGE from labeled Colo38 cell lysate; format: binding
Procedure: FIG. 3. Structural relationship between molecules recognized by scFv C21 and by HMW-MAA-specific mouse mAb 763.74 in a HMW-MAA^+ Colo38 cell lysate. A 1% NP-40 extract of ^125I-labeled Colo38 cells was immunodepleted with mAb 763.74. The immunodepleted cell extract was immunoprecipitated with insolubilized mAb 763.74 and scFv C21. Antigens were eluted and analyzed by SDS-PAGE in an 8% polyacrylamide gel. Gels were fixed, dried and autoradiographed for up to 1 day at −80° C. A 1% NP-40 extract of ^125I-labeled Colo38 cells immunodepleted with 100 kD MAA-specific mouse mAb 376.94 was used as a control.
FIG. 4. Role of N-linked glycosylation in the expression of the antigenic determinant recognized by scFv C21 on HMW-MAA isolated from a HMW-MAA^+ Colo38 cell extract. A 1% NP-40 extract of Colo38 cells labelled with ^35S-methionine in the presence of tunicamycin (0, 2 and 3 μg/ml,) was immunoprecipitated with scFv C21. Antigens were eluted from the immunoadsorbent and analyzed by SDS-PAGE in an 8% polyacrylamide gel. Gels were fixed, dried and processed for fluorography for up to three days at −80° C. using Hyperfilm-ECL. HMW-MAA-specific mouse mAb 763.74 was used as a control.
Labeling of cells with ^125Iodine (Na^125 I; Amersham) or with ^35S methionine (Trans-^35S-label, ICN Biochemicals, Costa Mesa, Calif.) in the presence of tunicamycin (Sigma Chemical Co.) was performed as described (Noronha et al., J Immunol 161:2968-2976, 1998; Desai et al., J Immunol 165:3275-3283, 2000). Solubilization of labelled cells, immunoprecipitation, SDS-PAGE, autoradiography and fluorography were performed as described (Desai et al., Cancer Res 58:2417-2425, 1998) except for the use of Gammon Bind plus sepharose (Amersham) instead of protein A coated with rabbit anti-mouse IgG antibodies.

[2] = target: T1, HMW-MAA; assay: Indirect immunoperoxidase staining of melanocytic lesions; format: binding; design: from tissue; host or cells: human nevi, primary and metastatic melanoma lesions (frozen sections)
Description: FIGS. 6A-6F. Immunohistochemical staining by scFv C21 of frozen surgically removed human nevi and melanoma lesions. scFv C21 stains a frozen nevus (FIG. 6A), a frozen primary melanoma lesion (FIG. 6B) and a frozen metastatic melanoma lesion (FIG. 6C). The specificity of the staining was monitored by staining the nevus (FIG. 6D), the primary (FIG. 6E) and the metastatic (FIG. 6F) melanoma lesions with the unrelated scFv #119.
The human melanoma cell lines Colo38, FO-1 and Melur and the human B lymphoid cell line LG2 were maintained in RPMI 1640 medium (Tissue Culture Media Facility, Roswell Park Cancer Institute (RPCI), Buffalo, N.Y.) supplemented with 10% serum plus supplement (BioWhittaker, Walkersville, Md.) and 2 mM L-glutamine (BioWhittaker). The human melanoma cell lines M14 and SK-MEL-28, the human fibroblasts FF2376, the human breast carcinoma cell line T47D, the human bladder carcinoma cell line T24, the human prostate carcinoma cell line PC3, the human B lymphoid cell lines JY and LKT13, and the rat neural cell line B49 were maintained in RPMI 1640 medium supplemented with 10% fetal bovine serum (FBS) (BioWhittaker) and 2 mM L-glutamine. The M14/HMW-MAA cells which express HMW-MAA following transfection of M14 cells with a plasmid DNA of pcDNA 3.1™ (+)/full length of HMW-MAA DNA construct (Yang et al., J Cell Biol 165:881-891, 2004) were grown in RPMI 1640 medium supplemented with 10% FBS, 2 mM L-glutamine and 0.4 mg/ml G418 (Promega, Madison, Wis.). Cells were cultured at 37° C. in a 5% CO2 atmosphere. Cell lysates were prepared as described (Desai et al., Cancer Res 58:2417-2425, 1998, herein incorporated by reference). Lesions of melanocytic origin were obtained from patients who had undergone surgery in the Department of Dermatology at Kumamoto University School of Medicine (Kumamoto, Japan). The diagnosis of melanoma lesions was based on histopathologic characteristics. The frozen and formalin-fixed tissue sections were prepared as described previously (Desai et al., Cancer Res 58:2417-2425, 1998, herein incorporated by reference).
The indirect immunoperoxidase staining of frozen and formalin-fixed tissue sections was performed as described previously (Desai et al., Cancer Res 58:2417-2425, 1998, herein incorporated by reference).

T1 sequence (Q6UVK1 30-2322): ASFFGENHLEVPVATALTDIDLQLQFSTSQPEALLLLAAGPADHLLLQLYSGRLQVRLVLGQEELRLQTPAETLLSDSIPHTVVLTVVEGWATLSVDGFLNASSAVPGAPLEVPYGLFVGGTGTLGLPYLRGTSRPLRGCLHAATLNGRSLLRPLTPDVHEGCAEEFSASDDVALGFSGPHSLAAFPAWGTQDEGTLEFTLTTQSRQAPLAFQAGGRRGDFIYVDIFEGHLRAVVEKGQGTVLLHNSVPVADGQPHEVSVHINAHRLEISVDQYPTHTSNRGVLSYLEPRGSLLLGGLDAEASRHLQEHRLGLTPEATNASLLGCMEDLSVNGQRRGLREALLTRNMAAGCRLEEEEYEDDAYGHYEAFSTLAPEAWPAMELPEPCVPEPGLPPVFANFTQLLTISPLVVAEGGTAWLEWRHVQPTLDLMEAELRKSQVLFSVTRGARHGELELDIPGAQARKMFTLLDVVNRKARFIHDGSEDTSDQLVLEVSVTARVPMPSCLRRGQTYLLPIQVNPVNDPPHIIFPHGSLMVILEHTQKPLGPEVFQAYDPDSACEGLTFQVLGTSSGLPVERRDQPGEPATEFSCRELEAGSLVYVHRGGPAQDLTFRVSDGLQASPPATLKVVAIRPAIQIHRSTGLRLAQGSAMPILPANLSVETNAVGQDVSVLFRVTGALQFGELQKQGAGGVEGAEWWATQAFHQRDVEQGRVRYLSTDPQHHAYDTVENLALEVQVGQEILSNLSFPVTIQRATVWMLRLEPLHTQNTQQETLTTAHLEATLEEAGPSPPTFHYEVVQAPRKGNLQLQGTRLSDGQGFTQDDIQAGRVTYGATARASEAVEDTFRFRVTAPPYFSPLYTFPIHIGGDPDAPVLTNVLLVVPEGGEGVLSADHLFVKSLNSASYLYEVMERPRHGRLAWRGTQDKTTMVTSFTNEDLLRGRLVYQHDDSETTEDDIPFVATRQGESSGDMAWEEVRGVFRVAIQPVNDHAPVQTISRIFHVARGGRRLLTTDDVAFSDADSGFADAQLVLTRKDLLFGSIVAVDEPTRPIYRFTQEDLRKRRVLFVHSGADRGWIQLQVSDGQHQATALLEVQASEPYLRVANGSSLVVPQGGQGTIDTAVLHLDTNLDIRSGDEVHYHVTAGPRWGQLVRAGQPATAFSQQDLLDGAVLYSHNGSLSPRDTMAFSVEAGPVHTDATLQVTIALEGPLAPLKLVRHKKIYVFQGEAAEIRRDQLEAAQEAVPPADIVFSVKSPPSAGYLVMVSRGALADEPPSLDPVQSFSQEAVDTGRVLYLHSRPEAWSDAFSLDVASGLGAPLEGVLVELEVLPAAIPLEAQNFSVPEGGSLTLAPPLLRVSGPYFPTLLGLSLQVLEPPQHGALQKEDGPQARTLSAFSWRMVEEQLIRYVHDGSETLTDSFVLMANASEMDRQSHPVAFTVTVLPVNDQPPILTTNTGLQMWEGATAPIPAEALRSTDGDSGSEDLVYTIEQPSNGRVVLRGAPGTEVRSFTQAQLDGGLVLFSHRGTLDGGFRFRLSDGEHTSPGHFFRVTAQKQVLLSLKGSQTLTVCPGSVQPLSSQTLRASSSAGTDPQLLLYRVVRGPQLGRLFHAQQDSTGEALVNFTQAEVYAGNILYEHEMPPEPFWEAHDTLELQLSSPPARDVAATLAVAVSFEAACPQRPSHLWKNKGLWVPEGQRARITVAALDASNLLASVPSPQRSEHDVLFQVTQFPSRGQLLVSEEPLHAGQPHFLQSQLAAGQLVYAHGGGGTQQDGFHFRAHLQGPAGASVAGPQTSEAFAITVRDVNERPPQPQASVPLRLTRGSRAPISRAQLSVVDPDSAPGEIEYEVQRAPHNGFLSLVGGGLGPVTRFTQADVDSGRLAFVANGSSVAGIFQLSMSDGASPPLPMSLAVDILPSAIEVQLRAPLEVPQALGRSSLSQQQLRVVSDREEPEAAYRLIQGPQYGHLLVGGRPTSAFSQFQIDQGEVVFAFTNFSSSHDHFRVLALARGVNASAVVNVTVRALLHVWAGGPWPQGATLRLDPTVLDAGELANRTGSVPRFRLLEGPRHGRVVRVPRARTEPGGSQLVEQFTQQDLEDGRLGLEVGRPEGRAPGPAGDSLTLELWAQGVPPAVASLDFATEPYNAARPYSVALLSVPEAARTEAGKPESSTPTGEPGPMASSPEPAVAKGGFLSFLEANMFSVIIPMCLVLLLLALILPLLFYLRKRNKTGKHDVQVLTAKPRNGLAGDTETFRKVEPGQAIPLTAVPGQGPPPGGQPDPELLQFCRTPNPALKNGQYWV

B1: scFv C21: HMW-MAA-specific fully human scFv from semi-synthetic phage display library; VH SEQ ID NO: 5, VL SEQ ID NO: 6 (antibody, listed as Homo sapiens, V domains shown)
VH: QVQLVQSGAEVKKPGSSVKVSCKASGGTFSSYAISWVRQAPGQGLEWMGGIIPIFGTANYAQKFQGRVTITADESTSTAYMELSSLRSDDTAVYYCARALDPITFDSWGQGTLVTVSR
VL: SELTQDPAVSVALGQTVRITCQGDSLRSYYASWYQQKPGQAPVLVIYGKNNRPSGIPDRFSGSSSGNTASLTITGAQAEDEADYYCNSRDSSGNHVVFGGGTKLTVLGRS
modifications: scFv linker
Effect of immunodepletion of Colo38 cell lysate with scFv C21 on components immunoprecipitated by mAb 763.74 [1]: removed most, but not all the components immunoprecipitated by mAb 763.74
Immunoprecipitation from 125I labeled Colo38 cells [1]: immunoprecipitated two components with the characteristic elecrophoretic profile of HMW-MAA components
Intensity of HMW-MAA components immunoprecipitated from Colo38 cells labeled in the presence of tunicamycin ([1]; 35S-methionine labeling, N-glycosylation inhibitor tunicamycin): marked reduction in the intensity of the HMW-MAA components immunoprecipitated
Immunoprecipitation from Colo38 cell lysate immunodepleted with mAb 763.74 ([1]; sequential immunoprecipitation): did not immunoprecipitate any components
Immunoprecipitation from Colo38 cell lysate immunodepleted with 100KD MAA-specific mAb 376.96 ([1]; specificity control of immunodepletion): immunoprecipitated the HMW-MAA components
Staining of formalin fixed paraffin embedded melanocytic lesions ([2]; formalin fixed paraffin embedded): did not stain
Staining of frozen melanocytic lesions in the immunoperoxidase reaction ([2]; frozen sections): stained frozen melanocytic lesions
Metastatic lesions stained with a heterogeneous pattern ([2]; metastatic lesions): 3 lesions
Metastatic lesions stained with a homogeneous pattern ([2]; metastatic lesions): 3 lesions
Metastatic lesions with cytoplasmic staining ([2]; metastatic lesions): 3 lesions
Metastatic lesions with membranous and cytoplasmic staining ([2]; metastatic lesions): 3 lesions
Primary lesions stained with a heterogeneous pattern ([2]; out of 15 primary lesions): 2 lesions
Primary lesions stained with a homogeneous pattern ([2]; out of 15 primary lesions): 9 lesions
Pigmented nevi stained homogeneously (membranous and cytoplasmic pattern) ([2]; pigmented nevi): 4
Primary lesions with cytoplasmic staining ([2]; primary lesions): 6 lesions
Primary lesions with membranous and cytoplasmic staining ([2]; primary lesions): 4 lesions
Primary lesions with membranous staining ([2]; primary lesions): 1 lesions
